# B1: conjugate (II-1), a conjugate of compound (III-1) and the anti-mesothelin antibody 6A4 (antibody, V domains shown)
# VH: QVHLVESGGGVVQPGRSLRLSCVASGITFRIYGMHWVRQAPGKGLEWVAVLWYDGSHEYYADSVKGRFTISRDNSKNTLYLQMNSLRAEDTAIYYCARDGDYYDSGSPLDYWGQGTLVTVSS
# VL: EIVLTQSPATLSLSPGERATLSCRASQSVSSYLAWYQQKPGQAPRLLIYDASNRATGIPARFSGSGSGTDFTLTISSLEPEDFAVYYCQQRSNWPLTFGGGTKVEIK
# modifications: lysine ε-amino groups thiolated with 2-iminothiolane and linked to the maleimide of tubulysin drug-linker compound (III-1); sites and chain not stated
# Target: mesothelin (UniProt Q13421 37-598, limits assumed)
# Experiment: cell-based or functional assay
# Chain of mesothelin (Q13421 other isoform, or with tags, fused parts or gaps limits assumed): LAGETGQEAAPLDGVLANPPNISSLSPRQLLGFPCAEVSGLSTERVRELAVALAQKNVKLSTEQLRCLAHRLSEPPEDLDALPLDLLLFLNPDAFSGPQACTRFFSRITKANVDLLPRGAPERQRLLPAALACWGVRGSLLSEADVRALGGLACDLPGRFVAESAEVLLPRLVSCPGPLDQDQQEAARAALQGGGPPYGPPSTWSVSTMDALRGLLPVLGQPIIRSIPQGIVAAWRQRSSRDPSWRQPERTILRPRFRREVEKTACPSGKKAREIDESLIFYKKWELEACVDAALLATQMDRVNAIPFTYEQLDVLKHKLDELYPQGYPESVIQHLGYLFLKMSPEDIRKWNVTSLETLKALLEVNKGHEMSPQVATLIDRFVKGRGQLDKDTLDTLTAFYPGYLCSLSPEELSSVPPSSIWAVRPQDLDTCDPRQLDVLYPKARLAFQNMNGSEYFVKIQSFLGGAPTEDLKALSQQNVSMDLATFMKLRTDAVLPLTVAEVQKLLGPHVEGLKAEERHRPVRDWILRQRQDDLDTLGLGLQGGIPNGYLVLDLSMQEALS
binder,measurement,value
B1,"EC50, inhibition of proliferation of N87 gastric cancer cells (3H thymidine incorporation assay)",0.2 nM
